Measured values taken from article PMC11564776, “Enzyme stabilisation due to incorporation of a fluorinated non-natural amino acid at the protein surface” (Scientific Reports, 2024).

Substrate: O=CCO
Assay: HPLC of erythrulose formation, initial velocities, Michaelis-Menten fit
Type: biochemical, Escherichia coli
Settings: 50 mM HPA, 1.36 mM ThDP, 5.1 mM MgCl2, 33 mM Tris.HCl, pH 7.0, assay 21 °C, pre-incubated 15 min at 21 °C, standard error in parentheses
Description: HPLC of erythrulose formation, initial velocities, Michaelis-Menten fit on WT transketolase (WT TK)

B1: WT transketolase (WT TK) (Escherichia coli K-12) (protein)
chain: MSSRKELANAIRALSMDAVQKAKSGHPGAPMGMADIAEVLWRDFLKHNPQNPSWADRDRFVLSNGHGSMLIYSLLHLTGYDLPMEELKNFRQLHSKTPGHPEVGYTAGVETTTGPLGQGIANAVGMAIAEKTLAAQFNRPGHDIVDHYTYAFMGDGCMMEGISHEVCSLAGTLKLGKLIAFYDDNGISIDGHVEGWFTDDTAMRFEAYGWHVIRDIDGHDAASIKRAVEEARAVTDKPSLLMCKTIIGFGSPNKAGTHDSHGAPLGDAEIALTREQLGWKYAPFEIPSEIYAQWDAKEAGQAKESAWNEKFAAYAKAYPQEAAEFTRRMKGEMPSDFDAKAKEFIAKLQANPAKIASRKASQNAIEAFGPLLPEFLGGSADLAPSNLTLWSGSKAINEDAAGNYIHYGVREFGMTAIANGISLHGGFLPYTSTFLMFVEYARNAVRMAALMKQRQVMVYTHDSIGLGEDGPTHQPVEQVASLRVTPNMSTWRPCDQVESAVAWKYGVERQDGPTALILSRQNLAQQERTEEQLANIARGGYVLKDCAGQPELIFIATGSEVELAVAAYEKLTAEGVKARVVSMPSTDAFDKQDAAYRESVLPKAVTARVAVEAGIADYWYKYVGLNGAIVGMTTFGESAPAELLFEEFGFTVDNVVAKAKELL
notes: full length, N-terminal His6 tag (plasmid pQR791), Ni-NTA purified, tag cleavage not mentioned; homodimer of 73-74 kDa monomers; WT expressed in E. coli XL10-Gold, variants in E. coli C321.dA.exp
Km: 22 (3) mM
Vmax: 4600 µM/min
kcat: 53.3 s⁻¹
kcat/Km: 2500 M⁻¹ s⁻¹
